The target in this assay is T1, MHC I (H2Kb) on dendritic cells (;mouse, UniProt P01887 21-119; P01901 22-369).
T1 construct: whole, on cells; also called MHC I molecules of DC2.4 cells
T1 sequence (MHC heavy): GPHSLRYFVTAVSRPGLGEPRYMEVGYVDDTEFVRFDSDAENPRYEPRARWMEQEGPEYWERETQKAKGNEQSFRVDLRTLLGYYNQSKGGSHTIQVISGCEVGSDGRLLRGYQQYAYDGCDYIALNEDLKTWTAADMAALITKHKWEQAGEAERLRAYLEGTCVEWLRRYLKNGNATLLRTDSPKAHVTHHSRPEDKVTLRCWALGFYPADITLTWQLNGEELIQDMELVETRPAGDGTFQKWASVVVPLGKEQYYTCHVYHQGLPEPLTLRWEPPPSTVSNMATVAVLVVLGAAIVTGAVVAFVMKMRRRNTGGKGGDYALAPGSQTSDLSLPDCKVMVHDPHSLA
T1 sequence (b2m): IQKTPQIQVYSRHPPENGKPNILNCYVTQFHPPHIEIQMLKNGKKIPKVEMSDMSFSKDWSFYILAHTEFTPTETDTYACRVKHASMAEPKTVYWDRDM
The assay is described as follows: competition with pre-loaded SIINFEKL on dendritic cells, flow cytometry with SIINFEKL/H2Kb-specific antibody. In general terms: A flow cytometer gives signals particle by particle.

Experimental findings from patent publication US20260069676A1 (University of California, published 2026) are described below.

B1: LTDEMIAQY peptide (MHC I peptide, SARS-CoV-2 spike T cell epitope) (peptide)
peptide: LTDEMIAQY
notes: Synthetic peptide (Anaspec), derived from the SARS-CoV-2 spike protein; also called LTD peptide (MHC I); LTD-MHC I peptide
Consider B1, for which the binding result is “binds”.
